Measured values as given in patent US8008547B2, “Glyphosate-N-acetyltransferase (GAT) genes” (E.I. duPont de Nemours, priority 2000, dated 2011).

Test: Standard protocol for determination of kcat and KM (continuous spectrophotometric assay, Acetyl CoA hydrolysis at 235 nm)
Type: biochemical
Settings: purified protein, about 23° C., 0.2 mM acetyl CoA; for Kcat: 20 mM HEPES pH 6.8, 10% ethylene glycol; for Km: pH 6.8, glyphosate 0.125 to 10 mM
Summary of the method: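 KM from initial rates over 0.125–10 mM glyphosate, fitted by Lineweaver-Burke transformation of Michaelis-Menten; kcat/KM computed as kcat divided by KM. Continuous spectrophotometric read of acetyl-CoA hydrolysis at 235 nm.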

B1: SEQ ID NO: 418: GAT polypeptide (protein)
chain: MIEVKPINAEDTYEIRHRILRPNQPLEACKYETDLLGGTFHLGGYYRGKLISIASFHQAEHPELEGQKQYQLRGMATLEGYREQKAGSTLIRHAEELLRKKGADLLWCNARTSASGYYKKLGFSEQGEVYDIPPVGPHILMYKKLT
modifications: 7_2D7
notes: GAT polypeptide
B1 showed a Kcat of 0.915 s⁻¹ and a Km of 1100 µM.

B2: SEQ ID NO: 419: GAT polypeptide (protein)
chain: MIEVKPINAEDTYEIRHRILRPNQPLEACMYETDLLGGTFHLGGYYRGKLISIASFHQAEHPELEGQKQYQLRGMATLEGYREQKVGSTLIRHAEELLRKKGADLLWCNARTSASGYYKKLGFSEQGGVYDIPPVGPHILMYKKLT
modifications: 7_5C7
notes: GAT polypeptide
B2 showed a Kcat of 0.745 s⁻¹ and a Km of 1000 µM.

B3: SEQ ID NO: 420: GAT polypeptide (protein)
chain: MIEVKPINAEDTYEIRHRILRPNQPLEACMYETDLLGGTFHLGGYYRGKLISIASFHQAEHPELEGQKQYQLRGMATLEGYREQKAGSTLIRHAEELLRKKGADLLWCNARTSASGYYKKLGFSEQGEVYDIPPIGPHILMYKKLT
modifications: 7_9C9
notes: GAT polypeptide
Work on B3 yielded a Kcat of 1.08 s⁻¹ and a Km of 1000 µM.

B4: SEQ ID NO: 421: GAT polypeptide (protein)
chain: MIEVKPINAEDTYEIRHRILRPNQPLEACKYETDLLRGAFHLGGYYRGKLVSIASFHQAEHSELEGQKQYQLRGMATLEEYREQKAGSTLIRHAEELLRKKGADLLWCNARTSASGYYKKLGFSEQGEVYDIPPTGPHILMYKKLT
modifications: 9_13F10
notes: GAT polypeptide
For B4, the Kcat was 0.578 s⁻¹ and the Km was 700 µM.

B5: SEQ ID NO: 422: GAT polypeptide (protein)
chain: MIEAKPINAEDTYEIRHRILRPNQPLEACMYETDLLGGTFHLGGYYRGKLVSIASFHQAEHTELEGQKQYQLRGMATLEEYREQKAGSTLIRHAEELLRKKGADLLWCNARTSASGYYKKLGFSEQGEVYDIPPVGPHILMYKKLT
modifications: 9_13F1
notes: GAT polypeptide
B5 showed a Kcat of 0.527 s⁻¹ and a Km of 1100 µM.

B6: SEQ ID NO: 423: GAT polypeptide (protein)
chain: MIEVKPINAEDTYEIRHRILRPNQPLDACKYETDLLGGTFHLGGYYRGKLISIASFHQAEHPELEGQKQYQLRGMATLEGYREQKAGSTLIRHAEELLRKKGADLLWCNARTSASGYYKKLGFSEQGEVYDIPPVGPHILMYKKLT
modifications: 9_15D5
notes: GAT polypeptide
B6 showed a Kcat of 0.46 s⁻¹ and a Km of 1200 µM.

B7: SEQ ID NO: 424: GAT polypeptide (protein)
chain: MIEVKPINAEDTYEIRHRILRPNQPLEACMYETDLLGGTFHLGGYYRGKLVSIASFHQAEHPELEGQKQYQLRGMATLEGYREQKAGSTLIRHAEALLRKKGADLLWCNARTSASGYYKKLGFSEQGEVYDTPPVGPHILMYKKLT
modifications: 9_15D8
notes: GAT polypeptide
For B7, the Kcat was 1.788 s⁻¹ and the Km was 1100 µM.

B8: SEQ ID NO: 425: GAT polypeptide (protein)
chain: MIEVKPINAEDTYEIRHRILRPNQPLEACMYETDMLRGAFHLGGYYRGKLISIASFHQAEHPELEGQKQYQLRGMATLEEYHEQKAGSTLIRHAEELLRKKGADLLWCNARTSASGYYKKLGFSEQGEVYNTPPVGPHILMYKKLT
modifications: 9_15H3
notes: GAT polypeptide
Molecule B8 has a Kcat of 1.14 s⁻¹ and a Km of 1900 µM.

B9: SEQ ID NO: 426: GAT polypeptide (protein)
chain: MIEVKPINAEDTYEIRHRILRPNQPLEACMYETDLLGGTFHLGGYYRGKLISIASFHQAEHPELVGQKQYQLRGMATLEGYREQKAGSTLIRHAEELLRKKGADLLWCNARTSASGYYKKLGFSEQGEVYDIPPVGPHILMYKKLT
modifications: 9_18H2
notes: GAT polypeptide
B9 gave a Kcat of 0.417 s⁻¹ and a Km of 1100 µM.

B10: SEQ ID NO: 273: GAT polypeptide (protein)
chain: MIEVKPINAEDTYEIRHRILRPNQPLEACKYETDLLGGTFHLGGYYRGKLVSIASFHQAEHSELEGQKQYQLRGMATLEEYREQKAGSTLIRHAEELLRKKGADLLWCNARTSASGYYKKLGFSEQGGVYDIPPVGPHILMYKKLT
modifications: 10_18G9
notes: GAT polypeptide
In the case of B10, the Kcat is reported as 0.4 s⁻¹ and the Km is reported as 1200 µM.

B11: SEQ ID NO: 427: GAT polypeptide (protein)
chain: MIEVKPINAEDTYEIRHRVLRPNQPLEACMYETDLLGGTFHLGGYYRGELVSIASFHQAEHPELEGQKQYQLRGMATLEGYREQKAGSTLIRHAEELLRKKGADLLWCNARTSASGYYKKLGFSEQGGVYDIPPVGPHILMYKKLT
modifications: 9_20F12
notes: GAT polypeptide
Molecule B11 has a Kcat of 0.63 s⁻¹ and a Km of 1000 µM.

B12: SEQ ID NO: 428: GAT polypeptide (protein)
chain: MIEVKPINAEDTYEIRHRILRPNQPLEACMYETDLLGGTFHLGGYYRGKLISIASFHQAEHPELEGQKQYQLRGMATLEGYREQKAGSTLIRHAEELLRKKGADLLWCNARTSASGYYKKLGFSDQGEVYDIPPVGPHILMYKKLT
modifications: 9_21C8
notes: GAT polypeptide
With B12 the Kcat was 0.477 s⁻¹ and the Km was 1200 µM.

B13: SEQ ID NO: 429: GAT polypeptide (protein)
chain: MIEVKPINAEDTYEIRHRILRPNQPLEACKYETDLLGGTFHLGGYYRGKLVSIASFHQAEHPELEGQKQYQLRGMATLEGYREQKAGSTLIRHAEELLRKKGADLLWCNARTSASGYYKKLGFSEQGEVYDLPPTGPHILMYKKLT
modifications: 9_22B1
notes: GAT polypeptide
B13 gave a Kcat of 0.835 s⁻¹ and a Km of 1400 µM.

B14: SEQ ID NO: 430: GAT polypeptide (protein)
chain: MIEVKPINAEDTYEIRHRILRPNQPLEACKYETDLLGGTLHLGGYYRGKLVSIASFHQAEHPELEGQKQYQLRGMATLEGYRGQKAGSTLIRHAEELLRKKGADLLWCNARTSASGYYKKLGFSEQGGVYDIPPVGPHILMYKKLT
modifications: 9_23A10
notes: GAT polypeptide
For B14, the Kcat was 0.35 s⁻¹ and the Km was 1000 µM.

B15: SEQ ID NO: 431: GAT polypeptide (protein)
chain: MIEVKPINAEDTYEIRHRILRPNQPLEACKYETDLLRGAFHLGGYYRGKLISIASFHQAEHSELEGQKQYQLRGMATLEGYREQKAGSTLIRHAEALLRKKGADLLWCNARTSASGYYKKLGFSEQGEVYDIPPTGPHILMYKKLT
modifications: 9_24F6
notes: GAT polypeptide
With B15 the Kcat was 0.875 s⁻¹ and the Km was 900 µM.

B16: SEQ ID NO: 432: GAT polypeptide (protein)
chain: MIEVKPINAEDTYEIRHRILRPNQPLEACKYETDLLGGTLHLGGYYRGKLISIASFHQAEHPELEGQKQYQLRGMATLEGYREQKAGSTLIRHAEELLRKKGADLIWCNARTSASGYYKKLGFSEQGEVYDIPPVGPHILMYKKLT
modifications: 9_4H10
notes: GAT polypeptide
Molecule B16 has a Kcat of 1.688 s⁻¹ and a Km of 1500 µM.

B17: SEQ ID NO: 433: GAT polypeptide (protein)
chain: MIEVKPINAEDTYEIRHRILRPNQPLEACMYETDLLGGTFHLGGYYRGKLISIASFNQAEHPELEGQKQYQLRGMATLEGYREQKAGSTLIRHAEELLRKKGADLLWCNARTSASGYYKKLGFSEQGEVYDIPPVGPHILMYKKLT
modifications: 9_4H8
notes: GAT polypeptide
In the case of B17, the Kcat is reported as 0.785 s⁻¹ and the Km is reported as 600 µM.

B18: SEQ ID NO: 434: GAT polypeptide (protein)
chain: MIEVKPITAEDTYEIRHRILRPNQPLEACKYETDLLGGTFHLGGYYRGKLISIASFHQAEHPELEGQKQYQLRGMATLEGYREQKAGSTLIRHAEELLRKKGADLLWCNARTSASGYYKKLGFSEQGEVYDIPPTGPHILMYKKLT
modifications: 9_8H1
notes: GAT polypeptide
Molecule B18 has a Kcat of 1.25 s⁻¹ and a Km of 1700 µM.

B19: SEQ ID NO: 435: GAT polypeptide (protein)
chain: MIEVKPINAEDAYEIRHRILRPNQPLEACKYETDLLGSTFHLGGYYRGKLISIASFHQAEHPELEGQKQYQLRGMATLEEYREQKAGSTLIRHAEELLRKKGADLLWCNARTSASGYYKKLGFSEQGEVYDIPPVGPHILMYKKLT
modifications: 9_9H7
notes: GAT polypeptide
Work on B19 yielded a Kcat of 0.467 s⁻¹ and a Km of 700 µM.

B20: SEQ ID NO: 436: GAT polypeptide (protein)
chain: MIEVKPINAEDTYEIRHRILRPNQPLEACMYETDLLGGTFHLGGYYQGKLISIASFHNAEHSELEGQKQYQLRGMATLEGYREQKAGSTLIRHAEELLRKKGADLLWCNARTSVSGYYEKLGFSEQGEVYDIPPVGPHILMYKKLA
modifications: 9C6
notes: GAT polypeptide
Work on B20 yielded a Kcat of 0.217 s⁻¹ and a Km of 2500 µM.

B21: SEQ ID NO: 274: GAT polypeptide (protein)
chain: MIEVKPINAEDTYEIRHRILRPNQPLEACKYETDLLGGTFHLGGYYRGKLVSIASFHQAEHPELEGRKQYQLRGMATLEGYREQKAGSTLIRHAEELLRKKGADLLWCNARTSASGYYKKLGFSEQGEVYDIPPTGPHILMYKKLT
modifications: 10_1H3
notes: GAT polypeptide
With B21 the Kcat was 1.27 s⁻¹ and the Km was 1900 µM.

B22: SEQ ID NO: 437: GAT polypeptide (protein)
chain: MIEVKPINAEDTYEIRHRILRPNQPLEACKYETDLLGGTFHLGGYYRGKLISIASFHKAEHSELEGEEQYQLRGMATLEGYREQKAGSTLIRHAEELLRKKGADLLWCNARTSVSGYYKKLGFSEQGEVYDIPPIGPHILMYKKLT
modifications: 9H11
notes: GAT polypeptide
Work on B22 yielded a Kcat of 0.067 s⁻¹ and a Km of 2300 µM.

B23: SEQ ID NO: 438: GAT polypeptide (protein)
chain: MIEVKPINAEDTYELRHKILRPNQPIEACMYESDLLRGAFHLGGFYRGKLISIASFHQAEHSDLEGQKQYQLRGMATLEGYRDQKAGSTLIKHAEEILRKRGADMLWCNARTTASGYYKKLGFSEQGEIFDTPPVGPHILMYKRLT
modifications: 0_4B10
notes: GAT polypeptide
Molecule B23 has a Kcat of 3.17 s⁻¹ and a Km of 680 µM.
